Results on six molecules are retold here after paper PMC5842915 (Biochemistry, 2017).

For assay [1], the target named is Bcl-2 (Homo sapiens) (UniProt P10415). The following applies: cited from earlier work.
Assay [2] has as its target BECN^1-265 (BECN1 residues 1-265, BARA-less construct) (human) (UniProt Q14457). The assay is described as follows: AUC.
For assay [3], the target named is Bcl-2 (Homo sapiens) (UniProt P10415). As to conditions: cited from earlier work. This is another data set of the same source.
The target in assay [4] is V250A/M254A/L261A mutant of full-length BECN1 (human) (UniProt Q14457). The assay is described as follows: AUC.
The target of assay [5] is BECN1 CC CC (Homo sapiens) (UniProt Q14457). As to conditions: cited from earlier work.
The target in assay [6] is human Bcl-2 (residues 1-218) (human, UniProt P10415 1-218). Briefly: ITC.
Chain of human Bcl-2 (residues 1-218) (P10415 1-218): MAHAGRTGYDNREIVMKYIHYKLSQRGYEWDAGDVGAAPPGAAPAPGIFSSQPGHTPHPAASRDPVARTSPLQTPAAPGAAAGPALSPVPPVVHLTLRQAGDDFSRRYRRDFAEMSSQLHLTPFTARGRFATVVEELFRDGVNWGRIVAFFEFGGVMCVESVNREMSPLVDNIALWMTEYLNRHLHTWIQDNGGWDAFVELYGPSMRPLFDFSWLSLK

“And” between values parts separate entries of the source, which are not always exact repeats. Equal values may be shown once. Read-outs that look alike come from different tables or passages of the source.

Chain of BECN1 CC CC (Q14457 175-265): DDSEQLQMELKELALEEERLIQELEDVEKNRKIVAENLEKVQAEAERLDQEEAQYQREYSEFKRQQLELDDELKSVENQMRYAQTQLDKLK
Chain of Bcl-2 (Homo sapiens) (P10415 whole entry, the tested form may be a part): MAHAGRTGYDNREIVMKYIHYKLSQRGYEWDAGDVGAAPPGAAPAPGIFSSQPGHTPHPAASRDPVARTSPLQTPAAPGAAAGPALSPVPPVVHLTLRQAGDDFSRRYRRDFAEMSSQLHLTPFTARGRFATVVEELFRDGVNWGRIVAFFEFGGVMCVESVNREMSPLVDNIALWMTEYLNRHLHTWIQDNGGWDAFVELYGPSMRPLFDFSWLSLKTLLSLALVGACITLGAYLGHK
Chain of BECN1 BH3 peptide 105-130 (Q14457 105-130): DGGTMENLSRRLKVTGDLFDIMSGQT
Chain of BECN1 IDR 1-135 (Q14457 1-135): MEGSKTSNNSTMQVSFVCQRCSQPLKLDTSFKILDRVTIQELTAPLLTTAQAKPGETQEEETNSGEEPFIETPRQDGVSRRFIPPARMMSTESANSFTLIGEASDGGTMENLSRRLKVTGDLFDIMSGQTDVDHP

Turning to “BECN1 BH3 peptide 105-130 (from UniProt Q14457)”, the Kd with Bcl-2 (Homo sapiens) [1] is 8 µM.
Molecule “BECN^1-265 (BECN1 residues 1-265, BARA-less construct) (from UniProt Q14457 1-265) (domain or fragment)” came in with a Kd in assay [2] of 1.35 µM.
As for BECN1 IDR 1-135 (from UniProt Q14457), the Kd with Bcl-2 (Homo sapiens) [3] is 8.6 µM.
“V250A/M254A/L261A mutant of full-length BECN1 (from UniProt Q14457 1-450) (natural protein)” gave a dissociation constant (Kd) in assay [4] of 1.86 µM.
As for BECN1 CC CC (from UniProt Q14457), the Kd in assay [5] is 48 µM and 45 µM.
As to FTLIGEASDGGTMENLSRRLKVTGDLFDIM [BECN1 BH3 peptide (residues 97-126)], binding in assay [6] was put at a Kd of 9.6 µM.

The Kd is the equilibrium constant for the complex coming apart.
